Experiment [1] deals with T1, β′ 1-1407 Y269A with C-terminal His6 (pTA601) (Escherichia coli, UniProt P0A8T7 1-1407).
T1 construct: range 1-1407
In words: Assembly Eσ32 holo: co-purification with His6-β′ from cells, Western blot; grade.
Method: (§1) The cultures were grown at 37° C. with shaking until the A₆₀₀=0.4 for log phase assays and 2 hours longer (A₆₀₀ about 2.0) for the early stationary phase assays. The cells were harvested by centrifugation at 6,000 rpm for 10 minutes and stored at −20° C. until use. The cell pellets were resuspended in 5 ml TE (10 mM Tris-HCl, pH 7.9 and 0.1 mM EDTA) plus 0.15 M NaCl and lysozyme (0.1 mg/ml) then incubated on ice for 15 minutes. The cells were sonicated 2×30 seconds and centrifuged for 25 minutes at 27,000× g to pellet the insoluble material. […] The column was washed with 15 ml TE plus 0.15 M NaCl followed by a second wash with 10 ml TE plus 0.5 M NaCl. The protein was eluted from the column with 4 ml TE plus 0.7 M NaCl and 30% propylene glycol. The eluted sample (4 ml) was diluted with 6 ml buffer B (20 mM Tris-HCl, pH 7.9, 500 mM NaCl, 5 mM imidazole, 0.1% (v/v) Tween 20, and 10% (v/v) glycerol) and loaded (2×) onto 500 μl of Ni²⁺-NTA resin. The resin was washed (2×) with 5 ml of buffer B and eluted with 0.5 ml buffer B plus 0.25 M imidazole. Samples from the elution fractions were assayed by Western blot as described above using Mabs to each subunit or a factor. The secondary antibodies were horseradish peroxidase-labeled goat antimouse IgG antibodies and the signal was generated using the ECL+ substrate system (Amersham) and detected using the STORM FluoroImager and quantitated with IMAGEQUANT software (Molecular Dynamics).

Experiment [2] addresses T2, β′ 1-1407 R297S with C-terminal His6 (pTA606) (Escherichia coli, UniProt P0A8T7 1-1407).
T2 construct: range 1-1407
The experiment is described as above.
Method: as §1

The target in experiment [3] is T3, β′ 1-1407 K280E with C-terminal His6 (pTA603) (Escherichia coli, UniProt P0A8T7 1-1407).
T3 construct: range 1-1407
Described as above.
Method: as §1

Experiment [4] deals with T4, β′ 1-1407 wild type with C-terminal His6 (pTA577) (Escherichia coli, UniProt P0A8T7 1-1407).
T4 construct: range 1-1407; also called wt; wild type β′
The experiment is described as above.
Method: as §1

In experiment [5] the target is T5, β′ 1-1407 N266D with C-terminal His6 (pTA600) (Escherichia coli, UniProt P0A8T7 1-1407).
T5 construct: range 1-1407
The experiment is described as above.
Method: as §1

The target of experiment [6] is T6, β′ 1-1407 E295K with C-terminal His6 (pTA605) (Escherichia coli, UniProt P0A8T7 1-1407).
T6 construct: range 1-1407
The description is as above.
Method: as §1

Experiment [7] concerns the target T7, β′ 1-1407 R293Q with C-terminal His6 (pTA604) (Escherichia coli, UniProt P0A8T7 1-1407).
T7 construct: range 1-1407
The experiment is described as above.
Method: as §1

The target in experiment [8] is T8, β′ 1-1407 N309D with C-terminal His6 (pTA609) (Escherichia coli, UniProt P0A8T7 1-1407).
T8 construct: range 1-1407
The description is as above.
Method: as §1

The target in experiment [9] is T9, β′ 1-1407 Q300E with C-terminal His6 (pTA607) (Escherichia coli, UniProt P0A8T7 1-1407).
T9 construct: range 1-1407
Described as above.
Method: as §1

The target in experiment [10] is T10, β′ 1-1407 A302D with C-terminal His6 (pTA608) (Escherichia coli, UniProt P0A8T7 1-1407).
T10 construct: range 1-1407
Described as above.
Method: as §1

Experiment [11] concerns the target T11, β′ 1-1407 R275Q with C-terminal His6 (pTA602) (Escherichia coli, UniProt P0A8T7 1-1407).
T11 construct: range 1-1407
Described as above.
Method: as §1

Experiment [12] concerns the target T2, β′ 1-1407 R297S with C-terminal His6 …. The experiment can be described thus: co-purification with His6-β′ from cells, Western blot.
Experiment [13] concerns the target T4, β′ 1-1407 wild type with C-terminal …. Described as above.
For experiment [14], the target named is T9, β′ 1-1407 Q300E with C-terminal His6 …. The description is as above.
The next experiment deals with T12, Bovine serum albumin (bovine, UniProt P02769 25-607).
T12 construct: also called BSA
T12 sequence (P02769 25-607 limits assumed): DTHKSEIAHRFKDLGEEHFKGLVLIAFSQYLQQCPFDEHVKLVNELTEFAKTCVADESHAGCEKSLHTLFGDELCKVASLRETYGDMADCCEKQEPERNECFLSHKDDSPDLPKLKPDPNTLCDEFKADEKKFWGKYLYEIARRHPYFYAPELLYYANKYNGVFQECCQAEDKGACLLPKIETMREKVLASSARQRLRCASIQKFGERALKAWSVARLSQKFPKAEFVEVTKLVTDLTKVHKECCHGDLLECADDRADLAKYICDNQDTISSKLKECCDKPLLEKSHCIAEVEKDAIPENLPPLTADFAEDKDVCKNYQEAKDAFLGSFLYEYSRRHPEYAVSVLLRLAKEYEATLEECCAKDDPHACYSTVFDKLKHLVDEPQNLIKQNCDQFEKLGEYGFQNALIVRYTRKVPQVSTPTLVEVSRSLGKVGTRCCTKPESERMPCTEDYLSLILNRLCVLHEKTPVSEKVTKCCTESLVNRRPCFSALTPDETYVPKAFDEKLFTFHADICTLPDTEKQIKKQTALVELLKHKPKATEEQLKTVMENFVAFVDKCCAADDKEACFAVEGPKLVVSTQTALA
The experiment can be described thus: Ni-NTA co-immobilization, SDS-PAGE.

For experiment [15], the target named is T13, σ70, native, untagged (pLN12) (Escherichia coli, UniProt P00579 1-613).
T13 construct: range 1-613; also called native ?^70
In words: Ni-NTA co-immobilization, SDS-PAGE.

Experiment [16] has as its target T14, HMK-His6-σ70, 32P-labeled (pHMK-His6-σ70) (Escherichia coli, UniProt P00579 1-613).
T14 construct: range 1-613; also called ^32P-labeled ?^70; HMK-?^70
In words: far-Western of β′1-319 in cell extract, normalized to Western.

B1: σ32 of E. coli (the cell's own) (other)
chain: MTDKMQSLALAPVGNLDSYIRAANAWPMLSADEERALAEKLHYHGDLEAAKTLILSHLRFVVHIARNYAGYGLPQADLIQEGNIGLMKAVRRFNPEVGVRLVSFAVHWIKAEIHEYVLRNWRIVKVATTKAQRKLFFNLRKTKQRLGWFNQDEVEMVARELGVTSKDVREMESRMAAQDMTFDLSSDDDSDSQPMAPVLYLQDKSSNFADGIEDDNWEEQAANRLTDAMQGLDERSQDIIRARWLDEDNKSTLQELADRYGVSAERVRQLEKNAMKKLRAAIEA
notes: also called E?32
Take B1: the binding result in experiment [1] was “binds”; in experiment [2], “binds”; in [3], “binds”; in experiment [4] it was “binds”; in experiment [5], “no binding”; in [6], “no binding”. Besides, the binding result in experiment [7] is recorded as “binds”; in [8], “binds”; in experiment [9] it was “binds”; in experiment [10], “no binding”; in experiment [11] it was “no binding”.

B2: σF of E. coli (the cell's own) (other)
chain: MNSLYTAEGVMDKHSLWQRYVPLVRHEALRLQVRLPASVELDDLLQAGGIGLLNAVERYDALQGTAFTTYAVQRIRGAMLDELRSRDWVPRSVRRNAREVAQAIGQLEQELGRNATETEVAERLGIDIADYRQMLLDTNNSQLFSYDEWREEHGDSIELVTDDHQRENPLQQLLDSNLRQRVMEAIETLPEREKLVLTLYYQEELNLKEIGAVLEVGESRVSQLHSQAIKRLRTKLGKL
Consider B2, for which the binding result in experiment [12], in [13] and in experiment [14] was “binds” in each case.

B3: His6-HMK-β′1-309 (pTA525) (enzyme)
chain: MKDLLKFLKAQTKTEEFDAIKIALASPDMIRSWSFGEVKKPETINYRTFKPERDGLFCARIFGPVKDYECLCGKYKRLKHRGVICEKCGVEVTQTKVRRERMGHIELASPTAHIWFLKSLPSRIGLLLDMPLRDIERVLYFESYVVIEGGMTNLERQQILTEEQYLDALEEFGDEFDAKMGAEAIQALLKSMDLEQECEQLREELNETNSETKRKKLTKRIKLLEAFVQSGNKPEWMILTVLPVLPPDLRPLVPLDGGRFATSDLNDLYRRVINRNNRLKRLLDLAAPDIIVRNEKRMLQEAVDALLDN
Turning to B3, the figures for the binding result (in the experiment with Bovine serum albumin; in experiment [15]) were “no binding” and “binds”, respectively.

B4: β′1-319 Q300E (pTA617) (enzyme)
chain: MKDLLKFLKAQTKTEEFDAIKIALASPDMIRSWSFGEVKKPETINYRTFKPERDGLFCARIFGPVKDYECLCGKYKRLKHRGVICEKCGVEVTQTKVRRERMGHIELASPTAHIWFLKSLPSRIGLLLDMPLRDIERVLYFESYVVIEGGMTNLERQQILTEEQYLDALEEFGDEFDAKMGAEAIQALLKSMDLEQECEQLREELNETNSETKRKKLTKRIKLLEAFVQSGNKPEWMILTVLPVLPPDLRPLVPLDGGRFATSDLNDLYRRVINRNNRLKRLLDLAAPDIIVRNEKRMLEEAVDALLDNGRRGRAITGS
B4: in [16], the “relative binding against wild type β′1-319” value is over 7 fold.

For the origin of these results see US20030104423A1 (WISCONSIN ALUMNI RESEARCH FOUNDATION, published 2003).
